Assay results taken from patent US5759768A, “Assays for factors affecting circularization of DNA, assays for factors affecting DNA integration, factors, and uses thereof” (priority 1995, dated 1998).

B1: T4 DNA ligase: phage T4 ligase (protein, UniProt P00970 1-487, looked up)
DNA ligase: MILKILNEIASIGSTKQKQAILEKNKDNELLKRVYRLTYSRGLQYYIKKWPKPGIATQSFGMLTLTDMLDFIEFTLATRKLTGNAAIEELTGYITDGKKDDVEVLRRVMMRDLECGASVSIANKVWPGLIPEQPQMLASSYDEKGINKNIKFPAFAQLKADGARCFAEVRGDELDDVRLLSRAGNEYLGLDLLKEELIKMTAEARQIHPEGVLIDGELVYHEQVKKEPEGLDFLFDAYPENSKAKEFAEVAESRTASNGIANKSLKGTISEKEAQCMKFQVWDYVPLVEIYSLPAFRLKYDVRFSKLEQMTSGYDKVILIENQVVNNLDEAKVIYKKYIDQGLEGIILKNIDGLWENARSKNLYKFKEVIDVDLKIVGIYPHRKDPTKAGGFILESECGKIKVNAGSGLKDKAGVKSHELDRTRIMENQNYYIGKILECECNGWLKSDGRTDYVKLFLPIAIRLREDKTKANTFEDVFGDFHEVTGL
B2: Proteinase K: an enzyme such as proteinase K (protein, UniProt P06873 106-384, looked up)
Proteinase K: AAQTNAPWGLARISSTSPGTSTYYYDESAGQGSCVYVIDTGIEASHPEFEGRAQMVKTYYYSSRDGNGHGTHCAGTVGSRTYGVAKKTQLFGVKVLDDNGSGQYSTIIAGMDFVASDKNNRNCPKGVVASLSLGGGYSSSVNSAAARLQSSGVMVAVAAGNNNADARNYSPASEPSVCTVGASDRYDRRSSFSNYGSVLDIFGPGTSILSTWIGGSTRSISGTSMATPHVAGLAAYLMTLGKTTAASACRYIADTANKGDLSNIPFGTVNLLAYNNYQA
B3: RNase A: RNase A (protein, UniProt P61823 27-150, looked up)
Ribonuclease pancreatic: KETAAAKFERQHMDSSTSAASSSNYCNQMMKSRNLTKDRCKPVNTFVHESLADVQAVCSQKNVACKNGQTNCYQSYSTMSITDCRETGSSKYPNCAYKTTQANKHIIVACEGNPYVPVHFDASV

Experiments:
Assay type in all cases: biochemical, HIV-1
[1] = tested on: purified linear viral DNA; experiment: Ligation of purified linear viral DNA by phage T4 DNA ligase and Klenow fragment; conditions: T4 DNA ligase alone
Experimental: Linear viral DNA was purified from cytoplasmic extracts of cells 4 hours post-infection as described above. In FIG. 22, a purified linear viral DNA was added to cytoplasmic extracts from uninfected SupT1 cells and incubated at 37° C. for 45 minutes. The uninfected SupT1 cells used for the preparation of extracts were either untreated (lanes 3-11) or cultured in the presence of 10 ng/ml phorbol 12-myristate 13-acetate for six hours prior to extraction (lane 2). […] Lanes 2-11: reaction products following incubation of purified linear viral DNA in uninfected extracts containing 1 mM ATP (lanes 2 and 3), nothing added (lane 4), 1 mM dATP (lane 5), 1 mM UTP (lane 6), 1 mM CTP (lane 7), 1 mM GTP (lane 8), 1 mM ATPγS (lane 9), or 1 mM ADP (lane 10). Lane 11: uninfected SupT1 cell extract was treated with proteinase K for 10 minutes at 37° C., then linear viral DNA was added and incubation continued for 45 minutes. In FIG. 23, lanes 1, 2, 4 and 5: purified linear viral DNA was incubated with T4 DNA ligase (lane 1), T4 polynucleotide kinase and T4 DNA ligase (lane 2), Klenow fragment of E. coli DNA polymerase I and T4 DNA ligase (lane 3), or Klenow fragment, T4 polynucleotide kinase, and T4 DNA ligase (lane 4). Lanes 3 and 6: in vitro circularization reaction products generated in cell extracts, included as size standards. […]

[2] = tested on: viral DNA integrated into .phi.X174 target DNA; conditions: for Relative activity, % of standard: pretreatment/37° C./30 min, target DNA 10 μg/ml
Experimental: (§1) The chronically HIV-1 infected Molt IIIB human T cell line (HTLV IIIB virus strain) was the source of virus for cell-free infections. This human T cell line constitutively produces a low level of the HTLV-111B strain of HIV-1. Culture supernatant containing a high concentration of virus was prepared by incubating 300×10^6 Molt IIIB cells in 50 ml fresh RPMI 1640 medium containing 20% fetal calf serum and 10 ng of phorbol 12-myristate 13-acetate per ml for 20-24 hours. […] Cytoplasmic extracts (3 ml) were prepared 4-4.5 hours post-infection, by a modification of the procedure of Brown et al., Cell 49: 342-356 (1987).
At specified times after infection, cells were washed twice with buffer K (20 mM Hepes, pH 7.4, 150 mM KCl, 5 mM MgCl2, 1 mM dithiothreitol, […]) and then lysed at a concentration of 33×10^6 cells per ml in the same buffer containing 0.025% digitonin or 0.025% Triton X-100. Cells were extracted for 10 minutes at room temperature, and the lysate was centrifuged at 1000×g for 3 minutes, and is referred to as "cytoplasmic extract". Cytoplasmic extract was the source of viral DNA for analyses in the assays described below. The pellet from the initial low-speed centrifugation contained cell debris and intact nuclei and is called the "nuclear pellet". Cell extracts from uninfected SupT1 cells were prepared in the same manner.
DNA samples were layered on 0.8% agarose gels and electrophoresed at 1 V/cm for 15 hour in Tris/acetate/EDTA buffer. After electrophoresis, DNA was blotted by capillary action onto nitrocellulose (0.45 μm, Schleicher & Schuell). […]
Cytoplasmic extracts prepared from SupT1 cells 4 hours after infection with HIV-1 were incubated with exogenously added target DNA under integration reaction conditions. Products of the reactions were analyzed by Southern blot hybridization. The time course of integration into linear .phi.X174 DNA target was determined. […] Integration was detected by the shift of linear viral DNA on Southern blots from the characteristic 9.7-kilobase (kb) position to a position corresponding to viral DNA plus target DNA.

[3] = tested on: linear viral DNA (circularization); conditions: pretreatment for 30 minutes prior to addition of ATP
Experimental: as §1
At specified times after infection, cells were washed twice with buffer K (20 mM Hepes, pH 7.4, 150 mM KCl, 5 mM MgCl2, 1 mM dithiothreitol, […]) and then lysed at a concentration of 33×10^6 cells per ml in the same buffer containing 0.025% digitonin or 0.025% Triton X-100. Cells were extracted for 10 minutes at room temperature, and the lysate was centrifuged at 1000×g for 3 minutes, and is referred to as "cytoplasmic extract". Cytoplasmic extract was the source of viral DNA for analyses in the assays described below. […]
Cell extracts were prepared from cells four to five hours after infection with HIV-1, using the above-described methods to yield fully functional viral preintegration complexes. […] Therefore, only LTR-containing DNA fragments are detected. […]

preintegration complexes = experiment: Circularization mediated by partially purified preintegration complexes; conditions: pretreatment of uninfected SupT1 extracts
Experimental: Viral preintegration complexes were partially purified from cytoplasmic extracts by Sephacryl S400 gel filtration chromatography. Cytoplasmic extracts (0.8 ml) were loaded onto a 22-ml Sephacryl S400 (Pharmacia) column, 28 cm in height, equilibrated in buffer K containing 0.5% Triton X-100 at 4° C. Fractions (0.5 ml) were collected at a flow rate of approximately 0.2 ml/min.
The linear viral DNA present in cytoplasmic extracts is a part of the nucleoprotein preintegration complex that can be separated from the bulk of cellular proteins by gel filtration chromatography [Farnet and Haseltine, J. Virol., 65: 1910-1915 (1991)]. Preintegration complexes were partially purified by Sephacryl S400 column chromatography and tested for the ability to mediate the circularization of viral DNA. Cytoplasmic extracts (1 ml, vol) were fractionated by Sephacryl S-400 gel filtration chromatography as previously described. The void volume fractions of the column, containing the peak of viral DNA, were pooled (total volume, 1.5 ml) and incubated as follows with the results shown in FIG. 20. […]

| Molecule | ligation of the ends of linear viral DNA [1] | integration in vitro ([2]; pretreatment of extracts prior to incubation with target DNA) | Relative activity, % of standard [2] | circle formation [3] | ability of uninfected extracts to restore 1-LTR and simple 2-LTR circle formation (preintegration complexes) |
| --- | --- | --- | --- | --- | --- |
| B1 | unable to ligate the ends of the linear DNA molecules | – | – | – | – |
| B2 | – | abolished integration in vitro | 0 % of standard | abolished circle formation | abolished the ability of the extracts to restore 1-LTR and simple 2-LTR circle formation |
| B3 | – | – | 100 % of standard | – | – |
